# In patent US20250011363A1, “OPTIMIZED SHORTENED PEPTIDE THAT BINDS TO ACETYLCHOLINE RECEPTOR, AND USE THEREOF” (SKINMED CO., LTD., priority 2021, published 2025):
# Target: acetylcholine receptor (Homo sapiens, UniProt P02708)
# Assay: SPR binding affinity (RU) of optimized 5mer/6mer/7mer peptides, Examples 6-7
# Conditions: SPR, Resonance Units; 5mer Bottom sequence (bottom combinations); peptides tested at 10 μM
# Protocol: Based on the frequencies of occurrence of the top 7 amino acids from Table 7 in Example 5, 600 peptides comprising these amino acids (top combinations) and those comprising the 13 less frequently occurring amino acids (bottom combinations) were synthesized for each series of 5mer, 6mer-1, and 6mer-2. The binding affinity of each sequence for the acetylcholine receptor was measured using Surface Plasmon Resonance (SPR) analysis method. The peptides were tested at a concentration of 10 μM. Additionally, the average binding affinities of the top and bottom combinations in each series are depicted in FIGS. 5-7.
# Representative peptides identified in Example 6, two in each library, including 5mers (73, 311) and 6mers-1 (43, 210) and 6mers-2 (136, 233), were compared with the pre-optimized 6mer, 5mer-ND, and Synake.
# Chain of acetylcholine receptor (P02708 21-457): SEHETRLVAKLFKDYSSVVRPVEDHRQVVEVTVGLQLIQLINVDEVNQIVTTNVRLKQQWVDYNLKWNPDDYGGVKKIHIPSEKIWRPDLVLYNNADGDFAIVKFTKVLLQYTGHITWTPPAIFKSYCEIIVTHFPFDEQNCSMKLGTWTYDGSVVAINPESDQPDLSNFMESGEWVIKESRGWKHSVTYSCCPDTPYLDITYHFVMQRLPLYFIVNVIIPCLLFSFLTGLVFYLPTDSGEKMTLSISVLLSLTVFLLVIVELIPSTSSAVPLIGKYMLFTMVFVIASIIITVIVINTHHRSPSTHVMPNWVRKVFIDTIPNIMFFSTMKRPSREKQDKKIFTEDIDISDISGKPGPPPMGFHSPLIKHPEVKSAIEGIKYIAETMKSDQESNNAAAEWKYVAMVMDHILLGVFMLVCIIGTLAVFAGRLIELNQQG
row,Substance,Binding affinity [Ru]
1,5mer-901 (KCTNR),30
2,5mer-902 (REDPK),23
3,5mer-903 (RHHKR),21
4,5mer-904 (KPDPK),23
5,5mer-905 (RPSPR),30
6,5mer-906 (RKHAK),31
7,5mer-907 (KDSVR),18
8,5mer-908 (RCHFK),25
9,5mer-909 (RINVK),33
10,5mer-910 (RPCFR),17
11,5mer-911 (REHGK),14
12,5mer-912 (KKMGR),16
13,5mer-913 (KHTFK),13
14,5mer-914 (RPTMR),26
15,5mer-915 (KMTHR),28
16,5mer-916 (RCHER),12
17,5mer-917 (KCAPR),11
18,5mer-918 (RNNVR),12
19,5mer-919 (KNNIK),32
20,5mer-920 (KPKIK),15
21,5mer-921 (KKKFK),21
22,5mer-922 (RMWKR),14
23,5mer-923 (KCWMK),19
24,5mer-924 (RNEKK),27
25,5mer-925 (KDCFK),25
26,5mer-926 (RNCWK),22

row,Substance,Binding affinity [Ru]
1,5mer-927 (RDEDR),19
2,5mer-928 (KHMVR),27
3,5mer-929 (KYTFR),28
4,5mer-930 (RAWVR),20
5,5mer-931 (RITER),11
6,5mer-932 (RTAWK),27
7,5mer-933 (RYMKK),27
8,5mer-934 (KMMMR),17
9,5mer-935 (RETFK),32
10,5mer-936 (RNHKR),29
11,5mer-937 (KASNR),21
12,5mer-938 (RIEFK),18
13,5mer-939 (KMHAR),24
14,5mer-940 (KCMGK),18
15,5mer-941 (KNHHR),21
16,5mer-942 (RPSDR),11
17,5mer-943 (KDKGK),12
18,5mer-944 (RYEFK),25
19,5mer-945 (RYEKR),23
20,5mer-946 (KYPWR),32
21,5mer-947 (KDWIR),27
22,5mer-948 (KDSFK),18
23,5mer-949 (KMKMK),26
24,5mer-950 (KDADR),22
25,5mer-951 (RYMGR),18
26,5mer-952 (KTMHK),12

row,Substance,Binding affinity [Ru]
1,5mer-953 (RKMAR),23
2,5mer-954 (KTEVK),23
3,5mer-955 (KNADK),14
4,5mer-956 (KPTWK),19
5,5mer-957 (RDCER),30
6,5mer-958 (RKWKR),11
7,5mer-959 (KPNMK),29
8,5mer-960 (RNPGK),14
9,5mer-961 (KIANR),32
10,5mer-962 (RIWKR),23
11,5mer-963 (RAPNK),24
12,5mer-964 (KYTDR),22
13,5mer-965 (KMEIR),30
14,5mer-966 (RPSAK),32
15,5mer-967 (KKTHK),26
16,5mer-968 (RIPHR),11
17,5mer-969 (RNTVR),27
18,5mer-970 (KYMNR),33
19,5mer-971 (KMTGK),12
20,5mer-972 (KYAKR),14
21,5mer-973 (RYWAR),12
22,5mer-974 (RHMMR),26
23,5mer-975 (RFAHK),18
24,5mer-976 (RETNR),16
25,5mer-977 (KNMIR),16
26,5mer-978 (RYDHK),30

row,Substance,Binding affinity [Ru]
1,5mer-979 (RHHMK),23
2,5mer-980 (RKPHR),33
3,5mer-981 (KNDKK),33
4,5mer-982 (KFMHK),12
5,5mer-983 (RTTGR),23
6,5mer-984 (KNAHK),11
7,5mer-985 (RDPKR),17
8,5mer-986 (RPMDK),12
9,5mer-987 (RAHWR),22
10,5mer-988 (RCKWR),17
11,5mer-989 (RCTAR),31
12,5mer-990 (KEEPK),12
13,5mer-991 (RPEFR),24
14,5mer-992 (RNDKK),15
15,5mer-993 (KEKFR),27
16,5mer-994 (KAWVR),26
17,5mer-995 (KFTDK),18
18,5mer-996 (RMTKK),32
19,5mer-997 (RYPHR),30
20,5mer-998 (RCTAK),18
21,5mer-999 (KTKFK),19
22,5mer-1000 (KHCWR),20
23,5mer-1001 (KPCGK),33
24,5mer-1002 (KEDNK),12

# Same assay, conditions: SPR; peptides tested at 10 μM; 5mer Bottom sequence
row,Substance,Binding affinity [Ru]
1,5mer-836 (REWNR),15
2,5mer-837 (RPMDR),28
3,5mer-838 (RHSMK),13
4,5mer-839 (RHHDK),26
5,5mer-840 (KDTAR),11
6,5mer-841 (KNEMR),22
7,5mer-842 (RHNVK),20
8,5mer-843 (KTTPK),17
9,5mer-844 (KTDPR),32
10,5mer-845 (RYEDR),15
11,5mer-846 (RPDWR),32
12,5mer-847 (KAPEK),28
13,5mer-848 (RYMVK),12
14,5mer-849 (KTWMK),15
15,5mer-850 (KYDIR),13
16,5mer-851 (KMCWK),19
17,5mer-852 (KDSMK),22
18,5mer-853 (RYHIK),13
19,5mer-854 (RNTER),21
20,5mer-855 (RFMKK),18
21,5mer-856 (KPPDR),23
22,5mer-857 (KMENR),23

row,Substance,Binding affinity [Ru]
1,5mer-858 (RIMGR),33
2,5mer-859 (KHNAR),26
3,5mer-860 (RCHAK),31
4,5mer-861 (KTKIR),20
5,5mer-862 (KKNAK),19
6,5mer-863 (REANR),16
7,5mer-864 (KYHPR),25
8,5mer-865 (RMMER),21
9,5mer-866 (RINWR),11
10,5mer-867 (KDSWK),14
11,5mer-868 (KMHFK),18
12,5mer-869 (KKHPK),31
13,5mer-870 (RCKVK),25
14,5mer-871 (RHSHR),21
15,5mer-872 (RKKWK),29
16,5mer-873 (RYNFR),32
17,5mer-874 (RIHMR),27
18,5mer-875 (KHCNK),33
19,5mer-876 (KETAR),16
20,5mer-877 (RFSMR),17
21,5mer-878 (KHTER),24
22,5mer-879 (KDCMK),13

row,Substance,Binding affinity [Ru]
1,5mer-880 (RCDKK),17
2,5mer-881 (RNDAK),31
3,5mer-882 (REEGR),18
4,5mer-883 (KMSAK),16
5,5mer-884 (KIWEK),28
6,5mer-885 (RHCNR),19
7,5mer-886 (RMMFR),21
8,5mer-887 (KTPVR),30
9,5mer-888 (KKCIR),31
10,5mer-889 (KTPGR),25
11,5mer-890 (KKHFK),33
12,5mer-891 (RKKMK),24
13,5mer-892 (RKPMR),29
14,5mer-893 (RIKIK),18
15,5mer-894 (KMSPR),18
16,5mer-895 (RFTKK),18
17,5mer-896 (RYHWR),27
18,5mer-897 (KFCER),30
19,5mer-898 (RYCMR),20
20,5mer-899 (RYTFR),31
21,5mer-900 (RHSVK),29
